Results on 16 compounds are retold here after patent US8008456B2, “Compositions containing, methods involving, and uses of non-natural amino acids and polypeptides” (Ambrx, Inc., priority 2004, dated 2011).

Series [1] is described as follows: Intracellular concentration of non-natural amino acids (cellular uptake). It counts as in vitro ADME. From the text: Non-natural amino acid uptake by a eukaryotic cell is one issue that is typically considered when designing and selecting non-natural amino acids, including but not limited to, for incorporation into a protein. […] Natural amino acids are taken up into the eukaryotic cell via a collection of protein-based transport systems. A rapid screen can be done which assesses which non-natural amino acids, if any, are taken up by cells (examples 15 & 16 herein illustrate non-limiting examples of tests which can be done on non-natural amino acids). See, e.g., the toxicity assays in, e.g., the U.S. Patent Publication No. 2004/198637 entitled “Protein Arrays,” which is herein incorporated by reference in its entirety, and Liu, D. R. & Schultz, P. G. (1999) Progress toward the evolution of an organism with an expanded genetic code. PNAS United States 96:4780-4785. Although uptake is easily analyzed with various assays, an alternative to designing non-natural amino acids that are amenable to cellular uptake pathways is to provide biosynthetic pathways to create amino acids in vivo.
(§1) This example provides results of four tests that were conducted on certain illustrative non-natural amino acids as an aid for predicting their properties for incorporation into non-natural amino acid polypeptides.

For series [2], the system named is aminoacyl-tRNA synthetase (RS). The experiment in a line: RS test. As for the experimental part: as §1
A further series can be described thus: Oxime stability pH 4-8. It counts as physicochemical. The method, then:
as §1

The nature of series [3]: Pharmacodynamic studies, bodyweight gain in hypophysectomized rats. The note with it: s.c., compared with 30 KPEG-pAF92(his)hGH, p<0.0005. It counts as in vivo, Hypophysectomized male Sprague-Dawley rats. The method, then:
Hypophysectomized male Sprague-Dawley rats were obtained from Charles River Laboratories. Pituitaries were surgically removed at 3-4 weeks of age. Animals were allowed to acclimate for a period of three weeks, during which time bodyweight was monitored. Animals with a bodyweight gain of 0-8 g over a period of seven days before the start of the study were included and randomized to treatment groups. Rats were administered either a bolus dose or daily dose subcutaneously. Throughout the study rats were daily and sequentially weighed, anesthetized, bled, and dosed (when applicable). Blood was collected from the orbital sinus using a heparinized capillary tube and placed into an EDTA coated microfuge tube. Plasma was isolated by centrifugation and stored at −80° C. until analysis. The mean (+/−S.D.) plasma concentrations were plotted versus time intervals.
The peptide IGF-1 is a member of the family of somatomedins or insulin-like growth factors. IGF-1 mediates many of the growth-promoting effects of growth hormone. IGF-1 concentrations were measured using a competitive binding enzyme immunoassay kit against the provided rat/mouse IGF-1 standards (Diagnostic Systems Laboratories). Hypophysectomized rats. Rats (n=5-7 per group) were given either a single dose or daily dose subcutaneously. Animals were sequentially weighed, anesthetized, bled, and dosed (when applicable) daily.

A short description of series [4]: Pharmacokinetic studies, single s.c. dose in rats, plasma growth hormone ELISA. Type of series: in vivo. The note with it: single-dose 1 mg/kg bolus s.c., normal male Sprague-Dawley rats; average (+/- standard deviation). The method, then:
Pharmacokinetic properties of PEG-modified growth hormone compounds were compared to each other and to nonPEGylated growth hormone in male Sprague-Dawley rats (261-425 g) obtained from Charles River Laboratories. Catheters were surgically installed into the carotid artery for blood collection. Following successful catheter installation, animals were assigned to treatment groups (three to six per group) prior to dosing. Animals were dosed subcutaneously with 1 mg/kg of compound in a dose volume of 0.41-0.55 ml/kg. Blood samples were collected at various time points via the indwelling catheter and into EDTA-coated microfuge tubes. Plasma was collected after centrifugation, and stored at −80° C. until analysis. Compound concentrations were measured using antibody sandwich growth hormone ELISA kits from either BioSource International (Camarillo, Calif.) or Diagnostic Systems Laboratories (Webster, Tex.). Concentrations were calculated using standards corresponding to the analog that was dosed. Pharmacokinetic parameters were estimated using the modeling program WinNonlin (Pharsight, version 4.1). Noncompartmental analysis with linear-up/log-down trapezoidal integration was used, and concentration data was uniformly weighted.
Plasma concentrations were obtained at regular intervals following a single subcutaneous dose in rats. […] Plasma samples were taken over the regular time intervals and assayed for injected compound as described. […] Concentration vs time curves were evaluated by noncompartmental analysis (Pharsight, version 4.1). Values shown are averages (+/−standard deviation). Cmax: maximum concentration; terminal t1/2: terminal half-life; AUC0->inf: area under the concentration-time curve extrapolated to infinity; MRT: mean residence time; Cl/f: apparent total, plasma clearance; Vz/f: apparent volume of distribution during terminal phase.
A general note: In an ELISA, binding on a coated surface is turned into a signal by an enzyme label.

Like-named read-outs stand apart in the source and are kept apart here.

Take `CC(=O)c1ccc(C[C@H](N)C(=O)O)cc1`: in series [1], the “Intracellular Concentration” value was 600 µM. Besides, the RS test entry in series [2] is on record as “✓”.
Consider `CC(=O)COc1ccc(C[C@H](N)C(=O)O)cc1`, for which the “Intracellular Concentration” value in series [1] was in the range of 1000 to 1800 µM.
On to `CC(C)=NOCOc1ccc(C[C@H](N)C(=O)O)cc1`, for which, in series [1], the “Intracellular Concentration” value came to 60 µM.
Same read-out and setting: the value for `CC(C)=NOCc1ccc(C[C@H](N)C(=O)O)cc1` was 300 µM.
In the case of `CC(=O)N/N=C/c1ccc(C[C@H](N)C(=O)O)cc1`, the “Intracellular Concentration” value in series [1] stood at 30 µM. In addition, the RS test result in series [2] is “✓”.
For `CC(=O)C(=O)Nc1ccc(C[C@H](N)C(=O)O)cc1`, in series [1], the “Intracellular Concentration” value came out at 376 µM.
For the compound `CC(=O)C(=O)c1ccc(C[C@H](N)C(=O)O)cc1`, the “Intracellular Concentration” value in series [1] (remark in words) was “Reduced [M + 2]”.
As for `CC(=O)CC(=O)c1ccc(C[C@H](N)C(=O)O)cc1`, the RS test entry in series [2] is recorded as “Meta- bolized”.
As for `CC(=O)CNC(=O)c1ccc(C[C@H](N)C(=O)O)cc1`, the results for the “Intracellular Concentration” value in series [1] and in series [1] (remark in words) were 628 µM and “little reduced”, respectively.
`N[C@@H](Cc1ccc2c(c1)NC(=O)C2=O)C(=O)O`: in “Oxime stability pH 4-8”, the “Oxime Stability pH 4-8” value was “− −”.
With `CC(=O)C(F)(F)c1ccc(C[C@H](N)C(=O)O)cc1`, the “Intracellular Concentration” value in series [1] was found to be 279 µM.
On to “30KPEG-pAF35(his)hGH: "hGH polypeptides comprising p-acetyl-phenylalanine covalently-linked to 30 kDa PEG at positions 35 and 92"”, for which the “bodyweight gain at day 9” value in series [3] is “greater weight gain”. Moreover, in series [4], the “AUC0->inf” value was 39,918 (±22,683) ng × hr/ml, the Cl/f is listed as 35 (±27) ml/hr/kg, the Cmax is reported as 1,885 (±1,011) ng/ml and the MRT was 19.16 (±4.00) h. In addition, the “Terminal t1/2” value in series [4] is 4.85 (±0.80) h.
Take “30KPEG-pAF131(his)hGH: "His-tagged hGH polypeptide comprising non-natural amino acid p-acetyl-phenylalanine covalently linked to 30 kDa PEG at each of six different positions"”: in series [4], the “AUC0->inf” value was 6,978 (±2,573) ng × hr/ml, the Cl/f is recorded as 161 (±61) ml/hr/kg, the Cmax was 497 (±187) ng/ml and the MRT is recorded as 14.28 (±0.92) h. Also, in series [4], the “Terminal t1/2” value is 4.41 (±0.27) h.
For the compound “30KPEG-pAF134(his)hGH: "His-tagged hGH polypeptide comprising non-natural amino acid p-acetyl-phenylalanine covalently linked to 30 kDa PEG at each of six different positions"”, in series [4], the “AUC0->inf” value was 7,304 (±2,494) ng × hr/ml, the Cl/f is 151 (±63) ml/hr/kg, the Cmax is reported as 566 (±204) ng/ml and the MRT is given as 12.15 (±1.03) h. Also, in series [4], the “Terminal t1/2” value is reported as 4.36 (±0.33) h.
“30KPEG-pAF143(his)hGH: "His-tagged hGH polypeptide comprising non-natural amino acid p-acetyl-phenylalanine covalently linked to 30 kDa PEG at each of six different positions"”: in series [4], the “AUC0->inf” value is 17,494 (±3,654) ng × hr/ml, the Cl/f is recorded as 59 (±11) ml/hr/kg, the Cmax was 803 (±149) ng/ml and the MRT is listed as 18.83 (±1.59) h. Moreover, in series [4], the “Terminal t1/2” value is 6.02 (±1.43) h.
“30KPEG-pAF145(his)hGH: "His-tagged hGH polypeptide comprising non-natural amino acid p-acetyl-phenylalanine covalently linked to 30 kDa PEG at each of six different positions"”: in series [4], the “AUC0->inf” value is given as 13,162 (±6,726) ng × hr/ml, the Cl/f is recorded as 88 (±29) ml/hr/kg, the Cmax is 634 (±256) ng/ml and the MRT is 17.82 (±0.56) h. The “Terminal t1/2” value in series [4] is reported as 5.87 (±0.09) h.
